In patent US20210087522A1 (UNIVERSITY OF FLORIDA RESEARCH FOUNDATION, published 2021):

Key:
[1] = target: T1, APPT, Sfp-like phosphopantetheinyl transferase (PPTase) from Anabaena sp. PCC7120 (Anabaena sp. PCC7120, UniProt P37695 1-237); assay: read from Km, Michaelis-Menten kinetics of phosphopantetheinylation (HPLC)
T1 construct: also called Anabaena PPTase
T1 sequence: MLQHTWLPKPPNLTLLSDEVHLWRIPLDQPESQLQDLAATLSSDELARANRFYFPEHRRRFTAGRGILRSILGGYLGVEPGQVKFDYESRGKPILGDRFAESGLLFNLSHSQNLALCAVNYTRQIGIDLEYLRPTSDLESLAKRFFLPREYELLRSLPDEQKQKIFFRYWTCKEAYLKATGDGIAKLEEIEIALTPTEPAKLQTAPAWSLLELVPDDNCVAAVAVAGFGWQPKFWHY

[2] = target: T2, SPPT, Sfp-like phosphopantetheinyl transferase (PPTase) from Synechocystis sp. PCC6803 (Synechocystis sp. PCC6803, UniProt Q55185 1-246); assay: as above
T2 construct: Recombinant protein with a His-tag from pET28b, made in E. coli
T2 sequence: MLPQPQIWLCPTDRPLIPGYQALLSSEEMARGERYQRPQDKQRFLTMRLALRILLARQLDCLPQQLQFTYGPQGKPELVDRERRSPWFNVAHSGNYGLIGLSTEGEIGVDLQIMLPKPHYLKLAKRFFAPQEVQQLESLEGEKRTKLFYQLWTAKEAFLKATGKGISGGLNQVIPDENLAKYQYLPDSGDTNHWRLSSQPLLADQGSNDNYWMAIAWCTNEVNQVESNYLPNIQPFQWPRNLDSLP

B1: SFACP, ACP of the FAS from Synechocystis (other)
chain: MDQEIFEKVKKIVVEQLEVDPDKVTPDATFAEDLGADSLDTVELVMALEEEFDIEIPDEVAETIDTVGKAVEHIESK
binding result [1]: binds | binding result [2]: binds
